The RNAGym collection of RNA variant scans (doi:10.7554/elife.80360)

B1: Hammerhead Ribozyme (parent)
chain: ACCGGAUGUGCUUUCCGGUCUGAUGAGUCCGUGAGGACGAAACAG

Variants of: B1
Assay: self-cleavage, relative activity (ratio to wild type); higher = more cleavage; co-transcriptional

In order of rising self-cleavage:
1. ACCGGAUGUGCUUCCCGGUCUGAUCAGUCCGUGAGGACGAAACAG [U14C G25C]  0.228
2. ACCGGAUGUGCUUCCCGGUCUGAUGAGUCCGUGAGGACGAAGCAG [U14C A42G]  0.249
3. ACCGGAUGUGCUUCCCGGUCUGGUGAGUCCGUGAGGACGAAACAG [U14C A23G]  0.268
4. ACCGGAUGUGCUUCCCGGUCUGAUGAGUCCGUGAGGACGAAAAAG [U14C C43A]  0.279
5. ACCGGAUGUGCUUCCCGGUCUCAUGAGUCCGUGAGGACGAAACAG [U14C G22C]  0.294
6. ACCGGAUGUGCUUCCCGGUCUGAUGAGUCCGUGAGGACUAAACAG [U14C G39U]  0.294
7. ACCGGAUGUGCUUCCCGGUCUGAUGAGUCCGUGAGGACGAUACAG [U14C A41U]  0.296
8. ACCGGAUGUGCUUCCCGGUCUGAUGAGUCCGUGAGGACGACACAG [U14C A41C]  0.301
9. ACCGGAUGUGCUUCCCGGUGUGAUGAGUCCGUGAGGACGAAACAG [U14C C20G]  0.301
10. ACCGGAUGUGCUUCCCGGUCUGAUGAGUCCGUGAGGACGAAAGAG [U14C C43G]  0.309
11. ACCGGAUGUGCUUCCCGGUCUGAUGAGUCCGUGAGGACGAGACAG [U14C A41G]  0.312
12. ACCGGAUGUGCUUCCCGGUCGGAUGAGUCCGUGAGGACGAAACAG [U14C U21G]  0.319
13. ACCGGAUGUGCUUCCCGGUCUAAUGAGUCCGUGAGGACGAAACAG [U14C G22A]  0.32
14. ACCGGAUGUGCUUCCCGGUCUGAUUAGUCCGUGAGGACGAAACAG [U14C G25U]  0.32
15. ACCGGAUGUGCUUCCCGGUCUUAUGAGUCCGUGAGGACGAAACAG [U14C G22U]  0.33
16. ACCGGAUGUGCUUCCCGGUCUGAUGAGUCCGUGAGGACGAACCAG [U14C A42C]  0.33
17. ACCGGAUGUGCUUCCCGGGCUGAUGAGUCCGUGAGGACGAAACAG [U14C U19G]  0.334
18. ACCGGAUGUGCUUCCCGGUCUGAUGAGUCCGUGAGGACGAAAUAG [U14C C43U]  0.337
19. ACCGGAUGUGCUUCCCGGUAUGAUGAGUCCGUGAGGACGAAACAG [U14C C20A]  0.337
20. ACCGGAUGUGCUUCCCGGUCUGAUGAGUCCGUGAGGACCAAACAG [U14C G39C]  0.337
21. ACCGGAUGUGCUUCCCGGUCUGUUGAGUCCGUGAGGACGAAACAG [U14C A23U]  0.341
22. ACCGGAUGUGCUUCCCGGUCAGAUGAGUCCGUGAGGACGAAACAG [U14C U21A]  0.347
23. ACCGGAUGUGCUUCCCGGUCUGAUGAGUCCGUGAGGACAAAACAG [U14C G39A]  0.349
24. ACCGGAUGUGCUUCCCGCUCUGAUGAGUCCGUGAGGACGAAACAG [U14C G18C]  0.351
25. ACCGGAUGUGCUUCCCGGUCUGAUGGGUCCGUGAGGACGAAACAG [U14C A26G]  0.359
26. ACCGGAUGUGCUUCCCGGACUGAUGAGUCCGUGAGGACGAAACAG [U14C U19A]  0.362
27. ACCGGAUGUGCUUCCCGGUCUGAUGCGUCCGUGAGGACGAAACAG [U14C A26C]  0.371
28. ACCGGAUGUGCUUCCCGGUCUGCUGAGUCCGUGAGGACGAAACAG [U14C A23C]  0.373
29. ACCGGAUGUGCUUCCCGGCCUGAUGAGUCCGUGAGGACGAAACAG [U14C U19C]  0.398
30. ACCGGAUGUGCUUCCCGAUCUGAUGAGUCCGUGAGGACGAAACAG [U14C G18A]  0.409
31. ACCGGAUGUGCUUCCCGUUCUGAUGAGUCCGUGAGGACGAAACAG [U14C G18U]  0.413
32. ACCGGAUGUGCUUCCCGGUCUGAUGAGUCCGUGAGGACGAAUCAG [U14C A42U]  0.423
33. ACCGGAUGUGCUUCCCGGUCUGAUGUGUCCGUGAGGACGAAACAG [U14C A26U]  0.444
34. ACCGGAUGUGCUUCCCGGUUUGAUGAGUCCGUGAGGACGAAACAG [U14C C20U]  0.457
35. ACCGGAUGUGCUUCCCGGUCUGAUGAGUACGUGAGGACGAAACAG [U14C C29A]  0.461
36. ACCGGAUGUGCUUCCCGGUCUGAUGAGUGCGUGAGGACGAAACAG [U14C C29G]  0.497
37. ACCGGAUGUGCUUCCCGGUCUGAUGAGACCGUGAGGACGAAACAG [U14C U28A]  0.501
38. ACCGGAUGUGCUUCCCGGUCCGAUGAGUCCGUGAGGACGAAACAG [U14C U21C]  0.504
39. ACCGGAUGUGCUUACCGGUCAGAUGAGUCCGUGAGGACGAAACAG [U14A U21A]  0.542
40. ACCGGAUGUGCUUCCCGGUCUGAUGAGGCCGUGAGGACGAAACAG [U14C U28G]  0.544
41. ACCGGAUGUGCUUCCCGGUCUGAUGAGUCCGGGAGGACGAAACAG [U14C U32G]  0.546
42. ACCGGAUGUGCUUACCGGUCCGAUGAGUCCGUGAGGACGAAACAG [U14A U21C]  0.586
43. ACCGGAUGUGCUUACCGGUCGGAUGAGUCCGUGAGGACGAAACAG [U14A U21G]  0.595
44. ACCGGAUGUGCUUCCCGGUCUGAUGAGUCCGCGAGGACGAAACAG [U14C U32C]  0.61
45. ACCGGAUGUGCUUCCCGGUCUGAUGAGUCUGUGAGGACGAAACAG [U14C C30U]  0.613
46. ACCGGAUGUGCUUCCCGGUCUGAUGAGUCGGUGAGGACGAAACAG [U14C C30G]  0.65
47. ACCGGAUGUGCUUCCCGGUCUGAUGAGUCAGUGAGGACGAAACAG [U14C C30A]  0.7
48. ACCGGAUGUGCUUCCCGGUCUGAUGAGCCCGUGAGGACGAAACAG [U14C U28C]  0.706
49. ACCGGAUGUGCUUCCCGGUCUGAUGAGUUCGUGAGGACGAAACAG [U14C C29U]  0.709
50. ACCGGAUGUGCUUCCCGGUCUGAAGAGUCCGUGAGGACGAAACAG [U14C U24A]  0.726
51. ACCGGAUGUGCUUGCCGGUCUGAUGCGUCCGUGAGGACGAAACAG [U14G A26C]  0.764
52. ACCGGAUGUGCUUCCCGGUCUGAUGAGUCCCUGAGGACGAAACAG [U14C G31C]  0.816
53. ACCGGAUGUGCUUCCCGGUCUGAGGAGUCCGUGAGGACGAAACAG [U14C U24G]  0.816
54. ACCGGAUGUGCUUCCCGGUCUGAUGAGUCCGAGAGGACGAAACAG [U14C U32A]  0.825
55. ACCGGAUGUGCUUCCCGGUCUGACGAGUCCGUGAGGACGAAACAG [U14C U24C]  0.889
56. ACCGGAUGUGCUUCCCGGUCUGAUGAGUCCAUGAGGACGAAACAG [U14C G31A]  0.918
57. ACCGGAUGUGCUUCCCGGUCUGAUGAGUCCUUGAGGACGAAACAG [U14C G31U]  1.05
